The values below come from patent US20250236644A1 (University of Washington, published 2025).

Test [1] has as its target T1, TAMRA-labeled effector peptide cs094B (5(6)-TAMRA label coupled on resin after synthesis).
T1 construct: also called TAMRA-cs094B
T1 peptide: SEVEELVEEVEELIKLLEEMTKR
Description: fluorescence polarization titration; TAMRA-peptide constant, hinge varied. From the text: (§1) We used our hinge design approach to generate hinge-peptide pairs that span a wide structural space (FIGS. 1D, 2A, 6, 7). We experimentally tested multiple rounds of designs, using both DHRs (21) and helical junctions (22) as input scaffolds, and improving individual steps of the design pipeline between iterations. Designs for which hinge and GFP-fused peptide were soluble and interacted as judged by size exclusion chromatography (SEC, FIGS. 7-8) were selected for further characterization by fluorescence polarization (FP). […] To circumvent the bottleneck of finding soluble peptide sequences, we also sought to design hinges that bind to a given target peptide. Starting from design cs201, we used a modified version of our design pipeline to redesign the hinge to bind peptides cs074B or cs221B, respectively, which have similar hydrophobic fingerprints as the original target peptide cs201B.
(§2) All FP measurements were performed at 25° C. in 96-well plates (Corning 3686) using a Synergy Neo2™ plate reader and a 530/590 nm filter cube. The buffer for all FP measurements was 20 mM Tris-HCl, 100 mM NaCl, 0.05% v/v TWEEN20 at pH 8. Titrations were carried out in 96-well format, with 4 replicates per plate and 24 data points per titration (23 steps of two-fold serial dilution of hinges in the presence of TAMRA-labeled peptide at a constant concentration between 0.1 nM and 1 nM) with a final sample volume of 80 μl per well. Titration plates were incubated overnight at room temperature before measuring to ensure complete equilibration. The polarization signal S (as calculated by the Neo2™ software) was fitted to the equation
On the technique in general: In fluorescence polarisation assays a small probe gives low polarisation when free and higher when bound to something large.

Test [2] concerns the target T1, TAMRA-labeled effector peptide cs094B. Description: fluorescence polarization kinetics; slope of kapp against hinge concentration. The procedure:
as §2
(§3) For FP kinetics experiments a 2× peptide solution and 8 different 2× hinge solutions at different concentrations were prepared separately. 40 μl of each hinge solution were mixed with 40 μl peptide solution using a multichannel pipet and the measurement was started immediately after mixing. Polarization signals S at each concentration were fitted individually to the equation

Test [3] deals with T2, TAMRA-labeled effector peptide cs221B (5(6)-TAMRA label coupled on resin after synthesis).
T2 construct: also called TAMRA-cs221B
T2 peptide: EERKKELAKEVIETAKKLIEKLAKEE
Description: fluorescence polarization titration; TAMRA-peptide constant, hinge varied.
Source text: as §1, §2

Test [4] deals with T2, TAMRA-labeled effector peptide cs221B. Kind of test: fluorescence polarization kinetics; slope of kapp against hinge concentration. The procedure: as §2, §3
For test [5] the target is unchanged. Kind of test: fluorescence polarization kinetics.
Source text: To test the effect of the conformational pre-equilibrium on effector binding, we introduced disulfide “staples” that lock the hinge in one conformation. Using FP we analyzed peptide binding to stapled versions of hinge cs221 (FIG. 5A,B). […] Using the pre-equilibrium model described above, the observed association rates provide an estimate of the fraction of hinge that is in state Y in absence of the peptide: a 200-fold higher observed on rate for the locked Y variant indicates a 200-fold higher fraction of hinge in state Y compared to the original hinge. Assuming that the locked Y variant is 100% in state Y and assuming that the microscopic rate constant k₂ is identical for the locked Y hinge and state Y of the original hinge, this would indicate that the original hinge is 99.5% in state X and 0.5% in state Y at equilibrium.
as §3

Test [6] concerns the target T3, TAMRA-labeled effector peptide cs074B (5(6)-TAMRA label coupled on resin after synthesis).
T3 construct: Chemically synthesized; also called TAMRA-cs074B
T3 peptide: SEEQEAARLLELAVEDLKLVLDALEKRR
Description: FP titration, 1 nM peptide, hinge varied. The procedure: (§4) FIG. 10. Redesign of hinges to bind other target peptides. An experimentally tested hinge (top, cs201) is redesigned using a one-sided two-state design approach to bind to different target peptides. Hinges csw13 and csw20 are designed to bind to peptides cs221B and cs074B, respectively, while having a backbone conformation that is similar to the parent cs201 that binds cs201B. Left: design models, right: FP titrations using 1 nM peptide (cs201B, cs221B, cs074B, js007B) and varying concentrations of hinge (from top to bottom: cs201, csw13, csw20). csw13 is an example of a successful orthogonal redesign that specifically binds the new target peptide cs221B while not binding the parent target peptide cs201B or the off-target peptides cs074B or js007B. csw20 is a less orthogonal example that binds the new target peptide cs074B most strongly but still binds to the parent-target peptide cs201B and to the off-target peptide cs221B albeit weaker than the new target.
as §2

For test [7], the target named is T4, TAMRA-labeled effector peptide cs201B (5(6)-TAMRA label coupled on resin after synthesis).
T4 construct: also called TAMRA-cs201B
T4 peptide: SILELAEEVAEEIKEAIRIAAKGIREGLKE
Kind of test: FP titration, 1 nM peptide, hinge varied. The procedure: as §4, §2

Test [8] concerns the target T2, TAMRA-labeled effector peptide cs221B. Kind of test: FP titration, 1 nM peptide, hinge varied. The procedure: as §4, §2
The target of test [9] is T4, TAMRA-labeled effector peptide cs201B. Kind of test: fluorescence polarization titration; TAMRA-peptide constant, hinge varied.
Source text: as §1, §2

For test [10] the target is unchanged. Description: fluorescence polarization kinetics; slope of kapp against hinge concentration. The procedure:
as §2, §3

For test [11], the target named is T5, TAMRA-labeled effector peptide cs207B (5(6)-TAMRA label coupled on resin after synthesis).
T5 construct: also called TAMRA-cs207B
T5 peptide: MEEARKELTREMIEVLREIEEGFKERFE
Kind of test: fluorescence polarization titration; TAMRA-peptide constant, hinge varied.
Source text: as §1, §2

In test [12] the target is T6, TAMRA-labeled effector peptide cs217B (5(6)-TAMRA label coupled on resin after synthesis).
T6 construct: also called TAMRA-cs217B
T6 peptide: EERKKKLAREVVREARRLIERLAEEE
Kind of test: fluorescence polarization titration; signal never reached a plateau, only a lower bound can be estimated. The procedure: as §2

B1: hinge cs094 (designed binder)
chain: MSGDEEERLRQEVEKAEKELEKLAKQSTDEEVRKMVREVAKQLRRLAEEAIRQKDDEALRQATEVVKMVQEAVKVAQKTTDQKVILLLLAVALVAIKVAQLAIRSDDTEALRLARIVIRAVQLLVKLVQKTTDPEVRRTALRVAELLAKLAKEAIERNDEEALREASEVVKEVQELVKEAEKSTDEEEIRELLQRAEERIREAQERIREGSGSHHWGSTHHHHHH
As usually defined, the Kd is the free concentration of one partner at which half of the binding sites on the other are occupied at equilibrium, for simple one-to-one binding. Usually kon stands for the rate constant with which the complex forms. Turning to B1, in [1], the Kd is 830 nM. The kon in test [2] worked out at 9400 M⁻¹ s⁻¹.

B2: hinge cs221 (designed binder)
chain: MSGEMKEEIRRLAEELRERTKDEEVRELAREAARLAEESDDEEVKEVVKKALEAALKSKDEEVIRLLLLAAVLAAAAARSGSPEEKLEIAKKALELAMKSKDEEVIRLALLAAVLAARSDDEEVLKKVKEALEKAMESKDVEEIRERLREAVEVARAGSGSHHWGSTHHHHHH
notes: also called original cs221; parent hinge without cysteines
On to B2, for which the Kd in test [3] was 2 nM. The kon in test [4] amounted to 3400 M⁻¹ s⁻¹.

B3: cs221_V111L (designed binder)
chain: MSGEMKEEIRRLAEELRERTKDEEVRELAREAARLAEESDDEEVKEVVKKALEAALKSKDEEVIRLLLLAAVLAAAAARSGSPEEKLEIAKKALELAMKSKDEEVIRLALLAALLAARSDDEEVLKKVKEALEKAMESKDVEEIRERLREAVEVARAGSGSHHWGSTHHHHHH
notes: Point mutant of hinge cs221
Consider B3, for which the Kd in [3] was 0.3 nM. The kon in test [4] is 24300 M⁻¹ s⁻¹.

B4: cs221_A73E (designed binder)
chain: MSGEMKEEIRRLAEELRERTKDEEVRELAREAARLAEESDDEEVKEVVKKALEAALKSKDEEVIRLLLLAAVLAAEAARSGSPEEKLEIAKKALELAMKSKDEEVIRLALLAAVLAARSDDEEVLKKVKEALEKAMESKDVEEIRERLREAVEVARAGSGSHHWGSTHHHHHH
notes: Point mutant of hinge cs221
As for B4, the Kd in test [3] was 4.9 nM. Besides, the on-rate (kon) in test [4] worked out at 1900 M⁻¹ s⁻¹.

B5: cs221_V111L_A114T (designed binder)
chain: MSGEMKEEIRRLAEELRERTKDEEVRELAREAARLAEESDDEEVKEVVKKALEAALKSKDEEVIRLLLLAAVLAAAAARSGSPEEKLEIAKKALELAMKSKDEEVIRLALLAALLATRSDDEEVLKKVKEALEKAMESKDVEEIRERLREAVEVARAGSGSHHWGSTHHHHHH
notes: Double mutant of hinge cs221; also called cs221-mut
Consider B5, for which, in [5], the “fold higher on rate than the original cs221” value is 22 fold. The Kd in test [3] was found to be 0.1 nM. In test [4], the kon worked out at 76200 M⁻¹ s⁻¹.

B6: cs221_A114T (designed binder)
chain: MSGEMKEEIRRLAEELRERTKDEEVRELAREAARLAEESDDEEVKEVVKKALEAALKSKDEEVIRLLLLAAVLAAAAARSGSPEEKLEIAKKALELAMKSKDEEVIRLALLAAVLATRSDDEEVLKKVKEALEKAMESKDVEEIRERLREAVEVARAGSGSHHWGSTHHHHHH
notes: Point mutant of hinge cs221
As to B6, in test [3], the Kd was 0.2 nM. In addition, the on-rate (kon) in test [4] amounted to 27700 M⁻¹ s⁻¹.

B7: cs221_L66T (designed binder)
chain: MSGEMKEEIRRLAEELRERTKDEEVRELAREAARLAEESDDEEVKEVVKKALEAALKSKDEEVIRLLLTAAVLAAAAARSGSPEEKLEIAKKALELAMKSKDEEVIRLALLAAVLAARSDDEEVLKKVKEALEKAMESKDVEEIRERLREAVEVARAGSGSHHWGSTHHHHHH
notes: Point mutant of hinge cs221
For B7, the Kd in test [3] stood at 38.3 nM. The on-rate constant (kon) in test [4] was found to be 2700 M⁻¹ s⁻¹.

B8: variant cs221_lockedY (designed binder)
chain: MSGEMKEEIRRLAEELRERTKDEEVRELAREAARLAEESDDEEVKEVVKKALEAALKSKDEEVIRLLLCAAVLAAAAARSGSPEEKLEIAKKALELAMKSKDEEVIRLACLAAVLAARSDDEEVLKKVKEALEKAMESKDVEEIRERLREAVEVARAGSGSHHWGSTHHHHHH
modifications: disulfide bond between the two introduced cysteines (locks the hinge in state Y; oxidized with copper phenanthroline)
notes: also called cs221 locked Y hinge variant
Take B8: in test [5], the “fold higher association rate than the original hinge cs221” value was found to be 200 fold. Further, the dissociation constant Kd in test [3] is 12 nM. Also, in test [4], the kon is 790000 M⁻¹ s⁻¹.

B9: swapped target hinge csw20 (designed binder)
chain: MSGMEEVKELVEKAEELAKEAEELIKKAKKTGNPELLKEALRKLKEAVELAKEAVELDPEHEEAIELLARLAEKLLEVAKLLIELAKKTGNPELLKEALRALKEAREALRLAAEHAPEDAKLLARLAARLAELALLIAKILIELAKKTGNPELLLKALKVLTLAVEAVEAALEADPRLKEAVRVAKELAEVLKELAKLAKELAKKTGNEELKEAAKEAEEVAKRAEELAREAEGSGSHHWGSTHHHHHH
With B9, the binding result in test [6], in test [7] and in [8] was “binds” each time.

B10: hinge cs201 (designed binder)
chain: MSGDEEVQEAVERAEELREEAEELIKKARKTGDPELLRKALEALKEAVRAVREAIKRNPDNEEAIKTALRLARELRKVAKELIERARKTGDAELLKKALEAARVAVEAVRLAAEYNKENAEKMAELLVELAELAREVADVLIELAEKTGDPELLKKALEVLEEAVEAVRLAIEYDPDHEEAVETAKRLAEELRKVAELLEERAKETGDPELQELAKRAKEVADRARELAKKSNGSGSHHWGSTHHHHHH
notes: also called unlabeled hinge cs201
Take B10: the Kd in test [9] worked out at 22 nM. The kon in test [10] came out at 6700 M⁻¹ s⁻¹.

B11: hinge cs207 (designed binder)
chain: MSGTEDERRELEKVARKAIEAAREGNTDEVREQLQRALEIARESGSEEAFKLALEVVRRVAEVAARAGNVEAVKEALRVALEIVKEAMELIKDPEAIVRLALEAVRVVAEVAARAGAVEAVKVALRVALEIAKIAGTEEAVRLALEVVKRVSDIAKKAGNEDAVKEAEEVRKKIEEESGGSGSHHWGSTHHHHHH
notes: also called cs207A
With B11, in test [11], the dissociation constant Kd came out at 820 nM.

B12: hinge cs217 (designed binder)
chain: MSGEMKEEIRRLAEELEKKTKDEEVKELARKAAELAEKSDNEEVLEVVKEALRAALKSKDEEVRRLLLEAAVLAAAAESSGSPEEKLEVALRAIRLAEKSKDEEVRRLALEAAVLAAESDDEEVLEEVLRALRRAEESKDEEERREELREAVRRAREGSGSHHWGSTHHHHHH
B12: the Kd in [12] was 20000 nM.
